{
  "source": "paper PMC8523606",
  "about": "“Two fungal flavonoid-specific glucosidases/rutinosidases for rutin hydrolysis and rutinoside synthesis under homogeneous and heterogeneous reaction conditions” (AMB Express, 2021)",
  "molecules": {"B1": {"name": "PcGlc (Penicillium rubens Wisconsin 54-1255) (protein)", "chain": "TPTSFHLSPNNNISHDYINWRTFHGRGVNLGGWLQQESTIDTSWWSTYSGGASDEWNLCAQLGSKCGPVLEHRYKTFITTRDIDTLASSGVTVLRIPTSYAAWVRVPGSQLYSGKQKEHIHRIATYAIEKYDMHIILDIHSLPGGINGLDIGEAVGHWGWYNNDTALKYSLDAVDSALHFIQFSSGHPQSYTLSPINEPVDNRDFSTFGTPAALSEAGASWVLKYLHAVIDRTKKVNPRIPVMCQGSFKPETYWSPHFDAGANIVFDEHHYYFQYSNSTSANLPEFLCQDAKKSAGDGKFPTFVGEWAIEASDNDLGLRGQNLQAGISAFGQFTRGSSYWTAKFSSNATIKGEGVKGNYWNYEEFVRMGYLDGQVEVPNYCQ", "notes": "secreted from recombinant Pichia pastoris KM71H, purified by cation exchange chromatography, glycosylated"}},
  "conditions_in_all_cases": "50 mM citrate buffer, 10% (v/v) DMSO",
  "key": {"[1]": {"tested_on": "COc1cc(-c2oc3cc(O)cc(O)c3c(=O)c2O[C@@H]2O[C@H](CO[C@@H]3O[C@@H](C)[C@H](O)[C@@H](O)[C@H]3O)[C@@H](O)[C@H](O)[C@H]2O)ccc1O", "test": "purified protein"}, "[2]": {"tested_on": "COc1ccc([C@@H]2CC(=O)c3c(O)cc(O[C@@H]4O[C@H](CO[C@@H]5O[C@@H](C)[C@H](O)[C@@H](O)[C@H]5O)[C@@H](O)[C@H](O)[C@H]4O)cc3O2)cc1O", "test": "purified protein"}, "[3]": {"tested_on": "O=c1c(O[C@@H]2O[C@H](CO)[C@@H](O)[C@H](O)[C@H]2O)c(-c2ccc(O)c(O)c2)oc2cc(O)cc(O)c12", "test": "purified protein"}, "[4]": {"tested_on": "C[C@@H]1O[C@@H](OC[C@H]2O[C@@H](Oc3c(-c4ccc(O)c(O)c4)oc4cc(O)cc(O)c4c3=O)[C@H](O)[C@@H](O)[C@@H]2O)[C@H](O)[C@H](O)[C@H]1O", "test": "purified protein"}, "[5]": {"substrate": "COc1ccc([C@@H]2CC(=O)c3c(O)cc(O[C@@H]4O[C@H](CO[C@@H]5O[C@@H](C)[C@H](O)[C@@H](O)[C@H]5O)[C@@H](O)[C@H](O)[C@H]4O)cc3O2)cc1O", "test": "hydrolysis, aglycone release by HPLC", "format": "biochemical, Penicillium rubens", "description": "(§1) hydrolysis, aglycone release by HPLC on PcGlc"}, "[6]": {"substrate": "O=c1c(O[C@@H]2O[C@H](CO)[C@@H](O)[C@H](O)[C@H]2O)c(-c2ccc(O)c(O)c2)oc2cc(O)cc(O)c12", "test": "hydrolysis, aglycone release by HPLC", "format": "biochemical, Penicillium rubens", "description": "as §1"}, "[7]": {"substrate": "COc1cc(-c2oc3cc(O)cc(O)c3c(=O)c2O[C@@H]2O[C@H](CO[C@@H]3O[C@@H](C)[C@H](O)[C@@H](O)[C@H]3O)[C@@H](O)[C@H](O)[C@H]2O)ccc1O", "test": "hydrolysis, aglycone release by HPLC", "format": "biochemical, Penicillium rubens", "description": "as §1"}, "[8]": {"substrate": "C[C@@H]1O[C@@H](OC[C@H]2O[C@@H](Oc3c(-c4ccc(O)c(O)c4)oc4cc(O)cc(O)c4c3=O)[C@H](O)[C@@H](O)[C@@H]2O)[C@H](O)[C@H](O)[C@H]1O", "test": "hydrolysis, aglycone release by HPLC", "format": "biochemical, Penicillium rubens", "description": "as §1"}},
  "data": [
    {"molecule": "McGlc (Mucor circinelloides)", "values": [
      {"measurement": "Km", "setting": "[1]", "value": "210 ± 90", "unit": "µM"},
      {"measurement": "kcat", "setting": "[1]", "value": "69.1 ± 6", "unit": "s⁻¹"},
      {"measurement": "kcat/Km", "setting": "[1]", "value": 257000, "unit": "M⁻¹ s⁻¹"},
      {"measurement": "Km", "setting": "[2]", "value": "4800 ± 100", "unit": "µM"},
      {"measurement": "kcat", "setting": "[2]", "value": "23 ± 1.7", "unit": "s⁻¹"},
      {"measurement": "kcat/Km", "setting": "[2]", "value": 4800, "unit": "M⁻¹ s⁻¹"},
      {"measurement": "Km", "setting": "[3]", "value": "40 ± 10", "unit": "µM"},
      {"measurement": "kcat", "setting": "[3]", "value": "53.9 ± 1.9", "unit": "s⁻¹"},
      {"measurement": "kcat/Km", "setting": "[3]", "value": "1.35e+06", "unit": "M⁻¹ s⁻¹"},
      {"measurement": "Km", "setting": "[4]", "value": "120 ± 30", "unit": "µM"},
      {"measurement": "kcat", "setting": "[4]", "value": "22.7 ± 0.5", "unit": "s⁻¹"},
      {"measurement": "kcat/Km", "setting": "[4]", "value": 189000, "unit": "M⁻¹ s⁻¹"}
    ]},
    {"molecule": "B1", "values": [
      {"measurement": "Km", "setting": "[5]", "value": "380 ± 90", "unit": "µM"},
      {"measurement": "kcat", "setting": "[5]", "value": "9.3 ± 0.8", "unit": "s⁻¹"},
      {"measurement": "kcat/Km", "setting": "[5]", "value": 24500, "unit": "M⁻¹ s⁻¹"},
      {"measurement": "Km", "setting": "[6]", "value": "30 ± 6", "unit": "µM"},
      {"measurement": "kcat", "setting": "[6]", "value": "30.3 ± 1.5", "unit": "s⁻¹"},
      {"measurement": "kcat/Km", "setting": "[6]", "value": "1.01e+06", "unit": "M⁻¹ s⁻¹"},
      {"measurement": "Km", "setting": "[7]", "value": "290 ± 100", "unit": "µM"},
      {"measurement": "kcat", "setting": "[7]", "value": "120 ± 13", "unit": "s⁻¹"},
      {"measurement": "kcat/Km", "setting": "[7]", "value": 414000, "unit": "M⁻¹ s⁻¹"},
      {"measurement": "Km", "setting": "[8]", "value": "210 ± 60", "unit": "µM"},
      {"measurement": "kcat", "setting": "[8]", "value": "39.3 ± 1.2", "unit": "s⁻¹"},
      {"measurement": "kcat/Km", "setting": "[8]", "value": 187000, "unit": "M⁻¹ s⁻¹"}
    ]}
  ]
}
